According to CN117756939A:

Target: 人源LILRB1 (human LILRB1, on HEK293T-hLILRB1, Jurkat-hLILRB1 or Daudi cells) (human)
Assay: flow cytometry, blocking of PE-HLA-G tetramer (2 μg/mL) binding to HEK293T-hLILRB1 cells

- IC50: 0.021 µg/mL
Substance: BION-202 (Biond Biologics公司研发的靶向LILRB1人源化IgG4单克隆抗体) (antibody)
